The text below walks through data of patent publication US20160068813A1, “DIFFERENTIATION OF ADIPOSE STROMAL CELLS INTO OSTEOBLASTS AND USES THEREOF” (Artecel Sciences Inc., priority 1997, published 2016).

The experiment has as its system stromal cells isolated from adipose tissue. As to the kind of experiment: Effect of compounds on osteoblast differentiation of adipose stromal cells, measured by secreted osteocalcin. It counts as cell-based, human. The conditions noted are these: differentiated as in Example 2 in presence and absence of compound; secreted osteocalcin assay; data not shown. The procedure:
Adipose stromal cells were isolated as described in Example 1 and then treated as follows to induce differentiation into osteoblasts. Stromal cells were plated in 24-well and/or 6-well tissue culture plates in stromal cell medium (see above) at a density of about 22,000 cells/cm^2. After 24 hours, the stromal cell medium was replaced with osteoblast differentiation medium (DMEM with 10% fetal bovine serum (v/v); 10 mM β-glycerophosphate; 50 μg/ml ascorbate-2-phosphate; 60 U/ml penicillin; 60 U/ml streptomycin; 15 μg/ml amphotericin B). The osteoblast differentiation medium was replaced with fresh medium every 3 days for 3 weeks. When changing the media, one ml of conditioned media was collected and stored at −80° C. for later analysis of secreted factors. […]
Biochemical changes indicative of osteoblast differentiation were also assessed. Osteocalcin is an osteoblast-specific secreted protein that can be measured by ELISA (Intact Human Osteocalcin K EIA kit, catalog number BT-460, Biomedical Technologies, Inc., Stoughton, Mass.). […]
Cultures of stromal cells isolated from adipose tissue according to the method described in Example 1 were used to study the effect compounds of interest on osteoblast differentiation. […] Differentiation was measured by assays for secreted osteocalcin. […]

B1: bone morphogenetic protein 4: bone morphogenetic protein, known osteoblast differentiation promoting agent (protein, UniProt P12644 293-408, looked up)
Bone morphogenetic protein 4: SPKHHSQRARKKNKNCRRHSLYVDFSDVGWNDWIVAPPGYQAFYCHGDCPFPLADHLNSTNHAIVQTLVNSVNSSIPKACCVPTELSAISMLYLDEYDKVVLKNYQEMVVEGCGCR
As for B1, the “effect on osteoblast differentiation” value is recorded as “positively affect osteoblast differentiation”.
